# Laboratory results published in patent publication US20180009871A1 (INTARCIA THERAPEUTICS, published 2018).
# Where no end group is shown, it is not given here. [ ]: non-standard residue; d: D form. Aib = CC(C)(N)C(=O)O
# B1: Compound A45 (peptide)
# peptide: YSHGTFTSDYSKYLD[Aib]KRAQEFV[Aib]WLEDEKRNKPPPA-OH
# modifications: N-terminus assumed
# SMILES: CC(C)C[C@H](NC(=O)[C@H](Cc1ccc(O)cc1)NC(=O)[C@H](CCCCN)NC(=O)[C@H](CO)NC(=O)[C@H](Cc1ccc(O)cc1)NC(=O)[C@H](CC(=O)O)NC(=O)[C@H](CO)NC(=O)[C@@H](NC(=O)[C@H](Cc1ccccc1)NC(=O)[C@@H](NC(=O)CNC(=O)[C@H](Cc1c[nH]cn1)NC(=O)[C@H](CO)NC(=O)[C@@H](N)Cc1ccc(O)cc1)[C@@H](C)O)[C@@H](C)O)C(=O)N[C@@H](CC(=O)O)C(=O)NC(C)(C)C(=O)N[C@@H](CCCCN)C(=O)N[C@@H](CCCNC(=N)N)C(=O)N[C@@H](C)C(=O)N[C@@H](CCC(N)=O)C(=O)N[C@@H](CCC(=O)O)C(=O)N[C@@H](Cc1ccccc1)C(=O)N[C@H](C(=O)NC(C)(C)C(=O)N[C@@H](Cc1c[nH]c2ccccc12)C(=O)N[C@@H](CC(C)C)C(=O)N[C@@H](CCC(=O)O)C(=O)N[C@@H](CC(=O)O)C(=O)N[C@@H](CCC(=O)O)C(=O)N[C@@H](CCCCN)C(=O)N[C@@H](CCCNC(=N)N)C(=O)N[C@@H](CC(N)=O)C(=O)N[C@@H](CCCCN)C(=O)N1CCC[C@H]1C(=O)N1CCC[C@H]1C(=O)N1CCC[C@H]1C(=O)N[C@@H](C)C(=O)O)C(C)C
# B2: Compound A51 (peptide)
# peptide: YSHGTFTSDYSKYLDLKRAQEFV[Aib]WLEDEPSSGAPPPS-OH
# modifications: N-terminus assumed
# SMILES: CC(C)C[C@H](NC(=O)[C@H](CC(=O)O)NC(=O)[C@H](CC(C)C)NC(=O)[C@H](Cc1ccc(O)cc1)NC(=O)[C@H](CCCCN)NC(=O)[C@H](CO)NC(=O)[C@H](Cc1ccc(O)cc1)NC(=O)[C@H](CC(=O)O)NC(=O)[C@H](CO)NC(=O)[C@@H](NC(=O)[C@H](Cc1ccccc1)NC(=O)[C@@H](NC(=O)CNC(=O)[C@H](Cc1c[nH]cn1)NC(=O)[C@H](CO)NC(=O)[C@@H](N)Cc1ccc(O)cc1)[C@@H](C)O)[C@@H](C)O)C(=O)N[C@@H](CCCCN)C(=O)N[C@@H](CCCNC(=N)N)C(=O)N[C@@H](C)C(=O)N[C@@H](CCC(N)=O)C(=O)N[C@@H](CCC(=O)O)C(=O)N[C@@H](Cc1ccccc1)C(=O)N[C@H](C(=O)NC(C)(C)C(=O)N[C@@H](Cc1c[nH]c2ccccc12)C(=O)N[C@@H](CC(C)C)C(=O)N[C@@H](CCC(=O)O)C(=O)N[C@@H](CC(=O)O)C(=O)N[C@@H](CCC(=O)O)C(=O)N1CCC[C@H]1C(=O)N[C@@H](CO)C(=O)N[C@@H](CO)C(=O)NCC(=O)N[C@@H](C)C(=O)N1CCC[C@H]1C(=O)N1CCC[C@H]1C(=O)N1CCC[C@H]1C(=O)N[C@@H](CO)C(=O)O)C(C)C
# B3: Compound A47 (peptide)
# peptide: YSHGTFTSDYSKYLD[Aib]KRAQEFV[Aib]WLEDEKRNKNPPS-OH
# modifications: N-terminus assumed
# SMILES: CC(C)C[C@H](NC(=O)[C@H](Cc1ccc(O)cc1)NC(=O)[C@H](CCCCN)NC(=O)[C@H](CO)NC(=O)[C@H](Cc1ccc(O)cc1)NC(=O)[C@H](CC(=O)O)NC(=O)[C@H](CO)NC(=O)[C@@H](NC(=O)[C@H](Cc1ccccc1)NC(=O)[C@@H](NC(=O)CNC(=O)[C@H](Cc1c[nH]cn1)NC(=O)[C@H](CO)NC(=O)[C@@H](N)Cc1ccc(O)cc1)[C@@H](C)O)[C@@H](C)O)C(=O)N[C@@H](CC(=O)O)C(=O)NC(C)(C)C(=O)N[C@@H](CCCCN)C(=O)N[C@@H](CCCNC(=N)N)C(=O)N[C@@H](C)C(=O)N[C@@H](CCC(N)=O)C(=O)N[C@@H](CCC(=O)O)C(=O)N[C@@H](Cc1ccccc1)C(=O)N[C@H](C(=O)NC(C)(C)C(=O)N[C@@H](Cc1c[nH]c2ccccc12)C(=O)N[C@@H](CC(C)C)C(=O)N[C@@H](CCC(=O)O)C(=O)N[C@@H](CC(=O)O)C(=O)N[C@@H](CCC(=O)O)C(=O)N[C@@H](CCCCN)C(=O)N[C@@H](CCCNC(=N)N)C(=O)N[C@@H](CC(N)=O)C(=O)N[C@@H](CCCCN)C(=O)N[C@@H](CC(N)=O)C(=O)N1CCC[C@H]1C(=O)N1CCC[C@H]1C(=O)N[C@@H](CO)C(=O)O)C(C)C
# B4: Compound A46 (peptide)
# peptide: YSHGTFTSDYSKYLD[Aib]KRAQEFV[Aib]WLEDEKRNKPPIA-OH
# modifications: N-terminus assumed
# SMILES: CC[C@H](C)[C@H](NC(=O)[C@@H]1CCCN1C(=O)[C@@H]1CCCN1C(=O)[C@H](CCCCN)NC(=O)[C@H](CC(N)=O)NC(=O)[C@H](CCCNC(=N)N)NC(=O)[C@H](CCCCN)NC(=O)[C@H](CCC(=O)O)NC(=O)[C@H](CC(=O)O)NC(=O)[C@H](CCC(=O)O)NC(=O)[C@H](CC(C)C)NC(=O)[C@H](Cc1c[nH]c2ccccc12)NC(=O)C(C)(C)NC(=O)[C@@H](NC(=O)[C@H](Cc1ccccc1)NC(=O)[C@H](CCC(=O)O)NC(=O)[C@H](CCC(N)=O)NC(=O)[C@H](C)NC(=O)[C@H](CCCNC(=N)N)NC(=O)[C@H](CCCCN)NC(=O)C(C)(C)NC(=O)[C@H](CC(=O)O)NC(=O)[C@H](CC(C)C)NC(=O)[C@H](Cc1ccc(O)cc1)NC(=O)[C@H](CCCCN)NC(=O)[C@H](CO)NC(=O)[C@H](Cc1ccc(O)cc1)NC(=O)[C@H](CC(=O)O)NC(=O)[C@H](CO)NC(=O)[C@@H](NC(=O)[C@H](Cc1ccccc1)NC(=O)[C@@H](NC(=O)CNC(=O)[C@H](Cc1c[nH]cn1)NC(=O)[C@H](CO)NC(=O)[C@@H](N)Cc1ccc(O)cc1)[C@@H](C)O)[C@@H](C)O)C(C)C)C(=O)N[C@@H](C)C(=O)O
# B5: Compound A50 (peptide)
# peptide: YSHGTFTSDYSKYLD[Aib]KRAQEFV[Aib]WLEDEKRNKPPPS-OH
# modifications: N-terminus assumed
# SMILES: CC(C)C[C@H](NC(=O)[C@H](Cc1ccc(O)cc1)NC(=O)[C@H](CCCCN)NC(=O)[C@H](CO)NC(=O)[C@H](Cc1ccc(O)cc1)NC(=O)[C@H](CC(=O)O)NC(=O)[C@H](CO)NC(=O)[C@@H](NC(=O)[C@H](Cc1ccccc1)NC(=O)[C@@H](NC(=O)CNC(=O)[C@H](Cc1c[nH]cn1)NC(=O)[C@H](CO)NC(=O)[C@@H](N)Cc1ccc(O)cc1)[C@@H](C)O)[C@@H](C)O)C(=O)N[C@@H](CC(=O)O)C(=O)NC(C)(C)C(=O)N[C@@H](CCCCN)C(=O)N[C@@H](CCCNC(=N)N)C(=O)N[C@@H](C)C(=O)N[C@@H](CCC(N)=O)C(=O)N[C@@H](CCC(=O)O)C(=O)N[C@@H](Cc1ccccc1)C(=O)N[C@H](C(=O)NC(C)(C)C(=O)N[C@@H](Cc1c[nH]c2ccccc12)C(=O)N[C@@H](CC(C)C)C(=O)N[C@@H](CCC(=O)O)C(=O)N[C@@H](CC(=O)O)C(=O)N[C@@H](CCC(=O)O)C(=O)N[C@@H](CCCCN)C(=O)N[C@@H](CCCNC(=N)N)C(=O)N[C@@H](CC(N)=O)C(=O)N[C@@H](CCCCN)C(=O)N1CCC[C@H]1C(=O)N1CCC[C@H]1C(=O)N1CCC[C@H]1C(=O)N[C@@H](CO)C(=O)O)C(C)C
# B6: Compound A49 (peptide)
# peptide: YSHGTFTSDYSKYLD[Aib]KRAQEFV[Aib]WLEDEPRNKNNPPS-OH
# modifications: N-terminus assumed
# SMILES: CC(C)C[C@H](NC(=O)[C@H](Cc1ccc(O)cc1)NC(=O)[C@H](CCCCN)NC(=O)[C@H](CO)NC(=O)[C@H](Cc1ccc(O)cc1)NC(=O)[C@H](CC(=O)O)NC(=O)[C@H](CO)NC(=O)[C@@H](NC(=O)[C@H](Cc1ccccc1)NC(=O)[C@@H](NC(=O)CNC(=O)[C@H](Cc1c[nH]cn1)NC(=O)[C@H](CO)NC(=O)[C@@H](N)Cc1ccc(O)cc1)[C@@H](C)O)[C@@H](C)O)C(=O)N[C@@H](CC(=O)O)C(=O)NC(C)(C)C(=O)N[C@@H](CCCCN)C(=O)N[C@@H](CCCNC(=N)N)C(=O)N[C@@H](C)C(=O)N[C@@H](CCC(N)=O)C(=O)N[C@@H](CCC(=O)O)C(=O)N[C@@H](Cc1ccccc1)C(=O)N[C@H](C(=O)NC(C)(C)C(=O)N[C@@H](Cc1c[nH]c2ccccc12)C(=O)N[C@@H](CC(C)C)C(=O)N[C@@H](CCC(=O)O)C(=O)N[C@@H](CC(=O)O)C(=O)N[C@@H](CCC(=O)O)C(=O)N1CCC[C@H]1C(=O)N[C@@H](CCCNC(=N)N)C(=O)N[C@@H](CC(N)=O)C(=O)N[C@@H](CCCCN)C(=O)N[C@@H](CC(N)=O)C(=O)N[C@@H](CC(N)=O)C(=O)N1CCC[C@H]1C(=O)N1CCC[C@H]1C(=O)N[C@@H](CO)C(=O)O)C(C)C
# B7: Compound A48 (peptide)
# peptide: YSHGTFTSDYSKYLD[Aib]KRAQEFV[Aib]WLEDEKRNKNPPPS-OH
# modifications: N-terminus assumed
# SMILES: CC(C)C[C@H](NC(=O)[C@H](Cc1ccc(O)cc1)NC(=O)[C@H](CCCCN)NC(=O)[C@H](CO)NC(=O)[C@H](Cc1ccc(O)cc1)NC(=O)[C@H](CC(=O)O)NC(=O)[C@H](CO)NC(=O)[C@@H](NC(=O)[C@H](Cc1ccccc1)NC(=O)[C@@H](NC(=O)CNC(=O)[C@H](Cc1c[nH]cn1)NC(=O)[C@H](CO)NC(=O)[C@@H](N)Cc1ccc(O)cc1)[C@@H](C)O)[C@@H](C)O)C(=O)N[C@@H](CC(=O)O)C(=O)NC(C)(C)C(=O)N[C@@H](CCCCN)C(=O)N[C@@H](CCCNC(=N)N)C(=O)N[C@@H](C)C(=O)N[C@@H](CCC(N)=O)C(=O)N[C@@H](CCC(=O)O)C(=O)N[C@@H](Cc1ccccc1)C(=O)N[C@H](C(=O)NC(C)(C)C(=O)N[C@@H](Cc1c[nH]c2ccccc12)C(=O)N[C@@H](CC(C)C)C(=O)N[C@@H](CCC(=O)O)C(=O)N[C@@H](CC(=O)O)C(=O)N[C@@H](CCC(=O)O)C(=O)N[C@@H](CCCCN)C(=O)N[C@@H](CCCNC(=N)N)C(=O)N[C@@H](CC(N)=O)C(=O)N[C@@H](CCCCN)C(=O)N[C@@H](CC(N)=O)C(=O)N1CCC[C@H]1C(=O)N1CCC[C@H]1C(=O)N1CCC[C@H]1C(=O)N[C@@H](CO)C(=O)O)C(C)C
# Target: human GLP-1 receptor (GLP-1R) (human, UniProt P43220 24-463)
# Experiment: cell-based or functional assay
# human GLP-1 receptor (GLP-1R), sequence (P43220 24-463): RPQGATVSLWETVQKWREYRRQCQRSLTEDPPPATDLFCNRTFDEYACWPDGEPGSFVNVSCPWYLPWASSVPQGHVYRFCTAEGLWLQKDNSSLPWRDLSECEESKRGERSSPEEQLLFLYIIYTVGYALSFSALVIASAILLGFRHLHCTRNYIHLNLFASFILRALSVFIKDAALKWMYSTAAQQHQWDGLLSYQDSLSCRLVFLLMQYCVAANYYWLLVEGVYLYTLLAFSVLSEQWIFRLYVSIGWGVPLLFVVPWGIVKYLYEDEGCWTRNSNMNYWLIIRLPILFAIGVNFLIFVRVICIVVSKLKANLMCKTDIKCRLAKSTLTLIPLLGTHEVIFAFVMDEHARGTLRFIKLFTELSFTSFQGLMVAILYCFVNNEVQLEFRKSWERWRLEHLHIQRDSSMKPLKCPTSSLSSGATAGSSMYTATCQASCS
row,Binder,hGLP1 pEC50 (cAMP) [pEC50]
1,B1,< 9
2,B2,< 9
3,B3,< 9
4,B4,< 9
5,B5,< 9
6,B6,< 9
7,B7,< 9

# Target: human glucagon receptor (GCGR) (human, UniProt P47871 26-477)
# Experiment: cell-based or functional assay
row,Binder,hGCGR pEC50 (cAMP) [pEC50]
1,B1,11.7
2,B2,12.3
3,B3,11.5
4,B4,12.5
5,B5,11.5
6,B6,12.4
7,B7,12.9
